Test results reported in patent US20030144205A1.

Molecular target: SV40 large T antigen (pGADT7-SV40 large T antigen) (SV40) (UniProt P03070)
Experiment: cell-based or functional assay

Chain of SV40 large T antigen (pGADT7-SV40 large T antigen) (SV40) (P03070 86-708 limits assumed): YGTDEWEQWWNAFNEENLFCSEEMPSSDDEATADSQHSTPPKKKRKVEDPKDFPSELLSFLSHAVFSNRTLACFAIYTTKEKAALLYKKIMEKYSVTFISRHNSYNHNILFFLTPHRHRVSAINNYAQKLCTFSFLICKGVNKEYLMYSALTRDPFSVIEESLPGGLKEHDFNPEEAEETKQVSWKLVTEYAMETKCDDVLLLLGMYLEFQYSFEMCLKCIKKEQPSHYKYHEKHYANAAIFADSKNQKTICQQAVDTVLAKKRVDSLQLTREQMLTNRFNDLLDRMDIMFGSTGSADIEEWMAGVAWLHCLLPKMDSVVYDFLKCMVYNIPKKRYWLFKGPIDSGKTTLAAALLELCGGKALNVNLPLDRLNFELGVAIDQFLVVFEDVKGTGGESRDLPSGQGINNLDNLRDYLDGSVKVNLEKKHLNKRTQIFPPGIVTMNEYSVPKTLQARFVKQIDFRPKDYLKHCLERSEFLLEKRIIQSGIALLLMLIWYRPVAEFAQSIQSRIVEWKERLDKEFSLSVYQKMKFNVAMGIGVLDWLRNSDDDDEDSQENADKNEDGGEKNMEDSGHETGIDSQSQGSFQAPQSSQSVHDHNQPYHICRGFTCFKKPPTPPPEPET

## murine p53 (pGBKT7-murine p53) (from UniProt P02340 72-390)
  fold increase in fluorescence, an indication of yeast growth in selection media (Fluorescence(t40)/Fluorescence(t0)): > 5 fold
